Data published in the nanobody polyreactivity screen of Harvey et al. (2022).

Assay: yeast display, Sf9 membrane polyspecificity reagent, FACS + sequencing; frameworks hold sequencing errors
Outline: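 A nanobody's polyreactivity label depends on the gate it was sorted from. Yeast display cells were stained with 10% biotinylated, detergent-solubilized Sf9 membrane reagent for 1 hour at 4 °C, enriched on streptavidin microbeads and sorted by FACS. The low and high (top ~1%) gates were set on anti-HA fluorescence for expression and streptavidin fluorescence for reagent binding.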

## QVLLVESGGGLVQAGGSLRVSCAASGSTFPYYAMGWYRQAPGKERELVAAITSSASTYYADSVKGRFTISRDNAKNTVYLQMNSLKPEDTAVYYCAVRTPYRLSRWRVGYWGQGTQVTVSS
  polyreactivity (PSR sort gate): high polyreactivity

## QVQHVESGGGLVQAGGSLRLSGAAYGRTFLYNAKGWNIQAPGKERELVAVISKRGGRTYYADSVKGRFTISRDNAKNTVYLQMKSLKPEDTAVYYCGAAYVTPPGPLRYNEYYWGQGSQVTVSS
  polyreactivity (PSR sort gate): high polyreactivity

## QVQLVESGGGLVQAGGSLRLSCAASGSTIRRYAMGWSRQAPGKERELVAAITRSGGSTYYADSVKGRFTISRDNAKNTVYLQMNSLKPEDTEVYYCAADTGTGLDWGQGTQVTVSS
  polyreactivity (PSR sort gate): high polyreactivity

## QVQLVESGGGLVQAGGSLRLSCAASGNIFTPYTMGWYRQAPGKERELVASINNAGTTKYADSVKGRFTISRDNAKNTVYLQMNSLKPEDTAVYFCAAQRRHALSSYPKHYYWGQGTQVTVSS
  polyreactivity (PSR sort gate): low polyreactivity

## QVQLVESGGGLVQAGGSLRLSCAASGLTFVDYTKGWYRQAPGNERELVAAIDWSGGSTYYADSVKGRFTISRDNAKNPVYLQMNSLKPEDTAVYYCNALRRFYSMDDYWGQGTQVTVSS
  polyreactivity (PSR sort gate): low polyreactivity

## QVQLVESGGGLVQAGGSLRLSCAASGNTFRYYAMGWYRQAPGKERELVAAISRNGGSTYADSVKGRFTISRDNAKNTVYLQMNSLKPEDTAVYYCNAYRIRPGTPYGKGYYYWGQGTQVTVSS
  polyreactivity (PSR sort gate): high polyreactivity

## QVQLVESGGGLVQAGGSLRLSCAASGRIFRWYAMGWYRQAPGKERELVAAITQGGGSTYYADSVKGRFTISRDNAKNTVYLQMNSLKPEDTAVYYCAARGRSVGSAGTSRYGYWGQGTQVTVSS
  polyreactivity (PSR sort gate): high polyreactivity

## QVHLVESGGGLFQAGGSLRISCAASGSIFRFNVMGWYRQAPGKERELVAAITRGDSTNYADSVKGRFTISRDNAKNTVYLQMNSLKPEVTAVYYCAAGFYYYLRDHDYWGQGTQVTVSS
  polyreactivity (PSR sort gate): low polyreactivity

## QVQLVESGGGLVQAGGSLRLSCAASGRIFGDYAMGWYRKAPGKERELLAAISWSDGSTYYADSVKGRFTISRDNAKNTVYLQMNSLKPEDTAVYYCAAYGWGYRYVDVVVSDFYYWGQGTQVTVSS
  polyreactivity (PSR sort gate): low polyreactivity

## QVQLVESGGGLVQAGASLRLSCAASGSIIDDYAMGWYRQAPGKERELVAAITYSGGTTYYADSVKGRFTISRDNAKNTVYLQLNSLKREDTAVYYCAAEWRVYYATYGYWGQGTQVTVSS
  polyreactivity (PSR sort gate): high polyreactivity

## QVQLVESGGGLVQAGGSLRLSCAASGRIFTYYAMGWYRQAPGKERELVAAISYSGSSTYYADSVKGRFTISRDNAKNTVYLQMNSLKPEDTAVYYCAAAPSGHYLAYGYWGQGTQVTVSS
  polyreactivity (PSR sort gate): high polyreactivity

## QVQLVESGGRLVQAGGSLRLSCAASGFIFRYNAMGWYRQAPGKERELVARITSSGGTTYYADSVKGRFTISRDSSKNTVYLQMNSLKPEDTAVYYCNARKVRYPYGWYDYWGQGTQVTVSS
  polyreactivity (PSR sort gate): high polyreactivity

## QVQLQESGGGLAQAGGSLRLSCAASGNIFDADIMGWYRQAPGKERELVGSITDGGSTNYVDSVKGRFTISRDNAKNTVHLQMNSLKPEDTAVYYCAAIAYPDIPTYFDYDSDCFNWGHGTQVTVSS
  polyreactivity (PSR sort gate): high polyreactivity

## QVQLVESGGGLVQAGGRLRVSCAASGSTFAWYAMGWYRQAPGKERELVAAISSGGRTYYADSVKGRFTISRDNAKNTVDLQMNSLKREDTAVFSCNADDWAYGMDYWGQGSQVTVSS
  polyreactivity (PSR sort gate): low polyreactivity

## QVQLVESGGGLVQAGGSLRLSCAASGFIFPSNAMGWYRQAPGKERELVAAISSRGTRTYYADSVKGRFTISRDNAKNTVYLQMNSLKPEDTAVYYCAKYGYWGQGTQVTVSS
  polyreactivity (PSR sort gate): high polyreactivity

## QVQLVESGGGIVQAGCSLRLSCAPSGSTFKNNAMGWDRQAPGKEREFVASIYKRGGSTYYADSVKGRFTISRDNAKNTVYLQKKSLTPEDTAVYYCAKTYWSYGWSHGDYGEVDYWGQGTQVNVSS
  polyreactivity (PSR sort gate): high polyreactivity

## QVQLVESGGGLVQAGGSLRLSCAASGFIFSNAMGWYRQAPGKERELVAAISRSGGSTYYADSVKGRFTISRDNAKNTVYLQMNSLKPEDTAVYYCGARSYPRSPVRYDYWGQGTQVTVSS
  polyreactivity (PSR sort gate): high polyreactivity

## QVQLVESGGGLVQAGGSLRLSCAASGSTFWYYAMGWYRQAPGKEREFVAAITTSAGRTYYADSVKGRFTISRDNAKNSVYLQMNSLKPEDTAVYYCAAEPRQYWEYNYWGQGTQVTVSS
  polyreactivity (PSR sort gate): high polyreactivity

## QVQLVETGGGLVQAGGSLRLSCAPSGLSIGYYAMGWYRQAPGKEREFVAAITWNGGSTYADSVKGLFTISRDNAKNTVYLQMNSLKPEDTAVYYCAADLSYWDDFDYWGQGTQVTVSS
  polyreactivity (PSR sort gate): low polyreactivity

## QVQLVESVGGLVQAGGSLRLSCAASGFIFSPYAMGWYRQAPGKERELVAAISWNGGRTYYADSVKGRFTISRDYAKNTVYLQMNSLKPEDTAVYYCAASFRNPYSHGYWGQGTQVTVSS
  polyreactivity (PSR sort gate): high polyreactivity

## QVQLVESGGGLVQAGGSLRLSCAASGGIFAVYAMGWYRQAPGKERELVAAITWRGGSTRYADSVKGRFTISRDNAKTTVYLQMNSLKPEDTAVYYCAVRSTGYPSRYYFWGQGTQVTVSS
  polyreactivity (PSR sort gate): high polyreactivity

## QVQLVESGGGLVQAGGSLRLSCAATGRIFGQYAMGWYRQAPGKESDFVAVISKRGGRTYYADSVMGRFTISRDNAKNTVYLQMNSLKPEDTAVYYCAAEYYPHDGAQYEYWGQGTQVTVSS
  polyreactivity (PSR sort gate): high polyreactivity

## QVQLVESGGGLVQAGGSLRLSCAASGRTFDTYAMGWYRQAPGKERELVAAISTTGRTYYADSVKGRFTISRDNAKNTVYLQMNSLKPEDTALYYCATDPTRSPTSDWGYYYWGQGTQVTVSS
  polyreactivity (PSR sort gate): low polyreactivity

## QVQLVESGGGLVQAGGSLRLSCAASGRIFPDNTMGWYRQAPGKERELVAVITYSGGSTYYADSVKGRFTISRDNAKNTVYLQMNSLKPEDTAVYYCARDDATAGDYWGQGTQVTVSS
  polyreactivity (PSR sort gate): low polyreactivity

## QVQLVESGRGLLQAGGSLRLSCAASGSIFYPYVMGWYRQAPGKERELVASISWRGGRTYYADSVKGRFTISRDNAKNTVYLQMNSMKPEDTAVYYCAKRTYDSFYGYYYWGQGTQVTVSS
  polyreactivity (PSR sort gate): high polyreactivity

## QVQLVESGGGVVQAGGSLRISCAASGRTFGVYVMGWYRQAPGKERELVAAISSSGGRTYYADSVKGRFTISRDNAKNTFYLQMNSLKPEDTAVFYCNAVRRREERDGPPNQMDYWGQGTQVTVSS
  polyreactivity (PSR sort gate): high polyreactivity

## HVQLVQSGGGLVQAGGSSRLSCAASGSIFFFNTMGWYSQAPGKERELVAVITSGGSTYYADSVTGRFRISRDNAKNTVYVQMNSLKPEDPAVYYCAARYLPYRRIKYDYWGQGTQVTVSS
  polyreactivity (PSR sort gate): low polyreactivity

## QVQLVESGGGLVQAGGSLRLSCAASGSTLGYYTMGWYRQAPGKERELVAAIDWSGGSTYYADSVKGRFTISRDNAKNTVYLQMNSLKPEDTAVYYCAVDYTYSYVDYWSEYDYWGQGTQVTVSS
  polyreactivity (PSR sort gate): low polyreactivity

## QVLLQESGGGLVQAGGSLRLSCAASGNIFSAGGMGWYRQAPVNERELVAGIGTGTSTNYADSVKGRFTISRDNANNTVYLQMNSLKPEDTAVYYCAAAYYSGLSHWYWGQGTQVTVSS
  polyreactivity (PSR sort gate): low polyreactivity

## QVQLVESGGGLVQAGGSLRLSCAASGFTFGYYAMGWYRQAPGKERELVAAISSSGGSTYYADSVKGRFTISRDNAKNTVYLQMNSLKQEDTAVYYCSTGFLQNYYKYSSSFRFYYWGQGTQVTVSS
  polyreactivity (PSR sort gate): high polyreactivity

## QVQLVESGGGIVQAGGSLRLSCAASGSTFDVNAMGWYRQAPGKERELVAAISWNSGSTYYADSVKGRFTISRDNAKNTVYLQMNSLKPEDTAVYYCAATYGTGRRSKYGYWGQGTQVTVSS
  polyreactivity (PSR sort gate): high polyreactivity

## QVQIVESGGGLVQAGGSLRLSCAASGSIFSRNVMGWYRQAPGKERELVAAISRSGGRTYYADSVKGRFTISRDYAKNTVYLQMNSLKPEDTAVYYCNRDIGGTSVLDDYWGQGTQVTVSS
  polyreactivity (PSR sort gate): low polyreactivity

## QVQLVESGGGLVQAGGSLRLSCAASGFIFTRYAMGWYRQAPGKERELVAAISASGGSTYYADSVKGRFTISRDNAKNTVYLQMKSLKPEETAVYYCAAVPYRYTYDYWGQGTQLTVSS
  polyreactivity (PSR sort gate): high polyreactivity

## QVQLVESGGGLVQAGGSLRLSCAASGSIFNYYAMGWYRQAPGKEREFVAAISWRGGSTYYADSVKGRFTISRDNAKNTVYLQMNRLKPEDTAVYYCNARVYGVYRRRVNYWGQGTQVTVSS
  polyreactivity (PSR sort gate): high polyreactivity

## QVQLVESGGGLDQAGGSLRLICAASVRTFFVNAMGRYRQAPGKERELVATITFSGDSTYYADSVKGRFTISRDNAKNTVYLQMNSLKPADTAVYYCAAYQGQKGYDYWGQGTQVTVSS
  polyreactivity (PSR sort gate): high polyreactivity

## QVKLVESGGGLVQAGGILRLSCAASGSIIVGNPMGWYRQAPGKERELVAAISRSGGSTYYADSVKGRFTISRDIAKNTVYLQMNSLKPEDTEVYYCASVRKQASGVDYWGQGTQVPVSS
  polyreactivity (PSR sort gate): high polyreactivity

## QVQLVESGGGLVQAGGSLRLSCDASGSTFISYAMGWFRQAPGKERELVAAISSGGGRTSYADSVKGRFTISRDNEKNTVYLQMNSLKPEDTAVYYCNTKKLPYAEGYWGQGTQVTVSS
  polyreactivity (PSR sort gate): low polyreactivity

## QVQLVESGGGLVQAGGSLRLTCAASGIIFFKNAMGWYRQAPGKERELVASINRSGGSTYYADSVKGRFTISRDNAKNTGYFQMNSLKPEDTAVFYCNARLTLRSYDYWGLGTQVTVSS
  polyreactivity (PSR sort gate): low polyreactivity

## QVQLVESGGGLVQAGGSLRLSCAASGYIFHSYMGSYRQAPGKETELVAAITSGGSTYYADSVKGRFTISRDNAKNTFFLKMNSLKPEDTAVYYCGAGWWYYLHMDYWGQGTQVTVSS
  polyreactivity (PSR sort gate): high polyreactivity

## QVQLVESGGGLVQAGGSLRLSCAASGSTFGWNTMGWYRQAPGKERELVAAISWYGDRTYYADSVKGRFTISRDNAKNTVYLQMNSLKPEDTAVYYCARQRYYGYYYWGQGTQVTVSS
  polyreactivity (PSR sort gate): high polyreactivity

## QVKLVESGGGLVKAGGSLRLSCAASGSISDWYAMGWYIQAPGKERELVAAISNSDGSTYYADSEKGRFTISRDNAKNTVYLQMNSLQPEYTAVYYCNASDAHEDRKSEYWGQGTQVTVSS
  polyreactivity (PSR sort gate): low polyreactivity

## QDQIVESGGGLVQAGGSLRLSCAASGSTFQANAMGWYRQAPGKERELVAAISRSGGSTYYADSVKGRFTISRDNAKNTVYLQMNSLKPEDTAVFYCAADYEYSGYGYWGQGTQVTVSS
  polyreactivity (PSR sort gate): high polyreactivity

## QVQLVESVGGLVQAGGSLRLSCAATGSTFGVNDMGWYRQSPGKERQFVADITTSGGSTYYADSVKWRFTISRDIAKNTVYLQMNSLKPEDTAVYYCAADLWPFEHDDYWGQGTQVTVSS
  polyreactivity (PSR sort gate): low polyreactivity
